T1: full length (FL) human gp130 over-expressed on HEK293/Stat3-luc/gp130-2X Sort cells (human, UniProt P40189 23-918)
T1 sequence: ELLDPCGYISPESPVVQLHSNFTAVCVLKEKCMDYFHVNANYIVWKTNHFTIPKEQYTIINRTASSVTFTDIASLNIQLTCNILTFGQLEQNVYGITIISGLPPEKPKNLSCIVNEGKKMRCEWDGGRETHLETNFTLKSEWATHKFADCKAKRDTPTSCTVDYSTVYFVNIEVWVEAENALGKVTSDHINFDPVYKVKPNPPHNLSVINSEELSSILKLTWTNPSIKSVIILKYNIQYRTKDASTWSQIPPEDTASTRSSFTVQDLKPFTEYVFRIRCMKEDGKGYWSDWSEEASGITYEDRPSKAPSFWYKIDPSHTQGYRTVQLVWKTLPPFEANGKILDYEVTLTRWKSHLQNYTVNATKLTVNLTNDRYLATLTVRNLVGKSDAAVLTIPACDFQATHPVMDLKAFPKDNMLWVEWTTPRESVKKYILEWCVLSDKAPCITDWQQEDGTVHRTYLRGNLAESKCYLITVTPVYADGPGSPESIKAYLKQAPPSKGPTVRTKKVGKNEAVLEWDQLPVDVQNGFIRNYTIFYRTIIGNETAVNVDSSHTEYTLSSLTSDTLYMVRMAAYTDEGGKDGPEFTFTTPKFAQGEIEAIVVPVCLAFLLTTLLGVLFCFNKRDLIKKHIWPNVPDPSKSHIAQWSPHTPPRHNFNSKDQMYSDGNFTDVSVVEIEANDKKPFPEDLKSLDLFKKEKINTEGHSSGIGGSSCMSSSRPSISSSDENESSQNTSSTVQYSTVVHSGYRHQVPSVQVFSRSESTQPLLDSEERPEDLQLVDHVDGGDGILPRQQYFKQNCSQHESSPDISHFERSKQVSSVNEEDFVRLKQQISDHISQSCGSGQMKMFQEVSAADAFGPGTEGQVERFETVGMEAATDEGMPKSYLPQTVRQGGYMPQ

T2: human gp130 expressed endogenously on IMR-32/Stat3-luc cells (human, UniProt P40189 23-918)
T2 construct: Endogenous gp130 of the human neuroblastoma line IMR-32
T2 sequence: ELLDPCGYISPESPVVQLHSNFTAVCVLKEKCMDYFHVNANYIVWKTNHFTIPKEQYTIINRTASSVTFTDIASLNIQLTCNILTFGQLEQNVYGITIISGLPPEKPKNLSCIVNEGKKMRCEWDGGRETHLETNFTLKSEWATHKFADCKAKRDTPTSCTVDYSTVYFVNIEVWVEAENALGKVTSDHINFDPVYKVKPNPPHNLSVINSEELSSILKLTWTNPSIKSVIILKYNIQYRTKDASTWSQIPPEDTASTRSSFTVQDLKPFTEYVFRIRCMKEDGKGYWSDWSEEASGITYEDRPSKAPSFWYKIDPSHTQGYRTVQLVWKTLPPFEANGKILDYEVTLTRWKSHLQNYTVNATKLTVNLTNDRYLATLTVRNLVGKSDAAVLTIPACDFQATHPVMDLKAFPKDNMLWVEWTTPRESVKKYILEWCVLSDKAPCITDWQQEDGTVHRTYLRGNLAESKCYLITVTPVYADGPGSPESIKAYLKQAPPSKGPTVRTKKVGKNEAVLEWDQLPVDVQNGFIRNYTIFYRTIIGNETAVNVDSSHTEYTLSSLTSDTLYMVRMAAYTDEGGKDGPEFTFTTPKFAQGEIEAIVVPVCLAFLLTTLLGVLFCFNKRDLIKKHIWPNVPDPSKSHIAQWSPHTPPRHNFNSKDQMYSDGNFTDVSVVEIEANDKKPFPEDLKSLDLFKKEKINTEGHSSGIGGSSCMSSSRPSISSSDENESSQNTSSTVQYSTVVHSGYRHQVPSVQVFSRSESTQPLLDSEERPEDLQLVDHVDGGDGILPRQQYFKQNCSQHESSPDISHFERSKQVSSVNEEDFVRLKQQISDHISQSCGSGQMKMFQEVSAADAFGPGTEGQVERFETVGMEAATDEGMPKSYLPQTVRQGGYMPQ


Assays:
[1] = molecular target: T1, full length (FL) human gp130 …; assay: FACS, 10 nM Ab, HEK293/Stat3-luc/gp130-2X Sort cells
Description: (§1) In order to assess cell binding by anti-GP130 antibodies of the invention two cell lines were generated. One cell line generated was HEK293 cells stably over-expressing full length (FL) human gp130 (amino acids 1-918 of accession #P40189 with leucine at position 2 changed to valine, a natural variant) along with a luciferase reporter (Stat3-luciferase, Stat3-luc, SA Bioscience, #CLS-6028L). The cells were sorted twice using flow cytometry for high expression of gp130. It is known hereafter as HEK293/Stat3-luc/gp130-2 X Sort. IMR-32 cells (human Neuroblastoma, ATCC), were also evaluated for cell binding as these cells express gp130 endogenously and were used for bioassays. The cells used for binding were generated to stably express a luciferase reporter (Stat3-luciferase, Stat3-luc, SA Bioscience, #CLS-6028L), and are referred to hereafter as IMR-32/STAT3-Luc cells.
(§2) For the FACS analysis, 10 nM of the antibodies were used to stain 0.5×10⁶ cells/well of each cell type at 4° C. in PBS (without calcium and magnesium) containing 2% FBS for 30 minutes. IMR-32/STAT3-luc cells were incubated with 1 mg/mL mouse IgG for 30 minutes at 4° C. to block Fc receptors prior to adding the antibodies. To test whether the anti-gp130 antibody binding is specific for gp130 on the IMR-32 cells, antibodies were added to IMR-32/Stat3-luc cells with or without being pre-bound to 1000 nM of recombinant protein of the ecto-domain of human gp130 fused to myc-myc-his tag (hgp130.mmh) for 30 minutes at 25° C. […] Cells were fixed using BD CytoFix™ (Becton Dickinson, #554655) and analyzed on an IQue® (Intellicyt®) Flow Cytometer. Unstained and secondary antibody alone controls were also tested for all cell lines. The results were analyzed using ForeCyt® (IntelliCyt®) software to determine the geometric means of fluorescence for viable cells.

[2] = molecular target: T2, human gp130 expressed endogenously on …; assay: FACS, 10 nM Ab, IMR-32/Stat3-luc cells, no hGP130.mmh
Description: as §1, §2

[3] = molecular target: T3, human GP130 delta D1-D3 with C-terminal myc-myc hexahistidine tag (human, UniProt P40189 329-619); assay: Luminex, antigen captured on anti-myc beads
T3 construct: used as CHO supernatant; also called human GP130 delta D1-D3-MMH; GP130 Delta D1-D3 extracellular domain
T3 sequence (P40189 other isoform, or with tags, fused parts or gaps mutant limits assumed): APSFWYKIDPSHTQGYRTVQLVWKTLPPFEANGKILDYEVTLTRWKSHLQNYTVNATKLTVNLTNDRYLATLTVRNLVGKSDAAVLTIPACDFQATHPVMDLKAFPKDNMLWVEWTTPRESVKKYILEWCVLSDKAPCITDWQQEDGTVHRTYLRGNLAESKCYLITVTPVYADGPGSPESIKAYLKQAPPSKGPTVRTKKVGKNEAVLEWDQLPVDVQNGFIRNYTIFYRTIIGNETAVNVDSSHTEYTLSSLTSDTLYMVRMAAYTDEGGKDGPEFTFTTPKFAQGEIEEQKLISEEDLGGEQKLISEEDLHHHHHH
Protocol: (§3) Aliquots of microspheres with immobilized anti-myc monoclonal antibodies, prepared as described above, were added individually to 1 mL of the each of these protein supernatants and to 500 uL of purified GP130 protein. The microspheres were gently mixed, incubated for two hours at 25° C., washed twice with 1 mL of DBPS, centrifuged to remove the supernatant and finally resuspended in 1 mL of DPBS buffer. Forty eight μL of anti-myc IgG coupled microspheres from individual reactions with full length human GP130 and with each of the human GP130 domain proteins were withdrawn and mixed together in 3.6 mL of PBS+20 mg/mL BSA+0.05% sodium azide (blocking buffer).
(§4) From this mixed pool, 75 μL of microspheres were plated per well on a 96 well filter plate (Millipore, Cat. No: MSBVN1250) and mixed with 25 μL of individual anti-human GP130 monoclonal antibodies (0.5 or 5 μg/mL), incubated for two hours at 25° C. and then washed twice with 200 μL of DPBS with 0.05% Tween 20 (washing buffer). To detect and quantify the amounts of bound anti-GP130 antibody levels to individual microspheres, either 100 μL of 2.5 μg/mL R-Phycoerythrin conjugated goat F(ab′)2 anti-human kappa (Southern Biotech, Cat #2063-09) in blocking buffer, was added and incubated for 30 minutes at 25° C. After 30 minutes, the samples were washed twice with 200 μL of washing buffer and resuspended in 150 μL of wash buffer. The Median Fluorescence intensity (MFI) of the microspheres was measured in a Luminex Analyzer.

[4] = molecular target: T4, human GP130 delta D1 with C-terminal myc-myc hexahistidine tag (human, UniProt P40189 124-619); assay: Luminex, antigen captured on anti-myc beads
T4 construct: used as CHO supernatant; also called human GP130 delta D1-MMH; GP130 Delta D1 extracellular domain
T4 sequence (P40189 other isoform, or with tags, fused parts or gaps mutant limits assumed): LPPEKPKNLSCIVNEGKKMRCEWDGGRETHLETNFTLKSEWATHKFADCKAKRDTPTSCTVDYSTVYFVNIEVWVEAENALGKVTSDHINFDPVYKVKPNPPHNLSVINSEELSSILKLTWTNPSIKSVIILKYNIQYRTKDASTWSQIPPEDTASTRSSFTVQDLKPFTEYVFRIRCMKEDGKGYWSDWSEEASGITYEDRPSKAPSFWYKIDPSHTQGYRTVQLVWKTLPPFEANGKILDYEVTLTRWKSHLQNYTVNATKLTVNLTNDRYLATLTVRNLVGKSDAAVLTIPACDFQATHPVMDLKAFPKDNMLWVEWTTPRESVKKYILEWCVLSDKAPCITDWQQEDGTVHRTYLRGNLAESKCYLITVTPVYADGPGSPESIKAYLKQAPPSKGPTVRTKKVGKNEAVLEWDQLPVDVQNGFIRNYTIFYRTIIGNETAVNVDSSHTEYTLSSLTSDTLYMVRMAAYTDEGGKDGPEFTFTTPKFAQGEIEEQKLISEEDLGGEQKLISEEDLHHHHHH
Protocol: as §3, §4

[5] = molecular target: T5, human GP130 full length extracellular domain with C-terminal myc-myc-hexahistidine tag (human, UniProt P40189 23-619); assay: Luminex, antigen captured on anti-myc beads
T5 construct: Monomeric; also called human GP130-MMH; hGP130-mmH
Protocol: as §3, §4

[6] = molecular target: T2, human gp130 expressed endogenously on …; assay: FACS, 10 nM Ab pre-bound to 1 uM hGP130.mmh, IMR-32/Stat3-luc cells
Description: as §1, §2

Row | Binder | MFI - Normalized to Unstained Control [1] | MFI - Normalized to Unstained Control [2] | Luminex MFI signal [3] | Luminex MFI signal [4] | Luminex MFI signal [5] | MFI - Normalized to Unstained Control [6]
1 | MAb16664 (antibody, V domains shown, hIgG4 isotype control used) VH: QVQLVQSGTEVKKPGSSVKVSCKASGGTFSTYPINWVRQAPGQGLEWMGGIIPIFGTASYAQKFQGRVAITTDESTSTAYMELNSLRSEDTAVYYCARERPNWGSNDYWGQGTLVTVSS VL: not shown | 45 ratio | 7 ratio | 419 MFI | 442 MFI | 19300 MFI | 8 ratio
2 | MAb16665 (antibody, V domains shown, hIgG4 isotype control used) VH: QVQLVESGGGVVQPGRSLRLACAASGFTFRSYGMHWVRQAPGKGLEWVAVIWYDGSNKYYTDSVKGRFTISRDNSKNTLYLQMNSLRAEDTAMYYCAIDKWATVTTYLFDYWGQGTLVTVSS VL: not shown | 55 ratio | 5 ratio | 116 MFI | 119 MFI | 16300 MFI | 6 ratio
3 | MAb16669 (antibody, V domains shown, hIgG4 isotype control used) VH: EVQLVESGGGLVQPGGSLRLSCAASGFTFSSYAMNWVRQAPGKGLEWVSAISGSGDSTYYTDSVKGRFTISRDNSKNTLYLQMNTLRAEDTAVYYCAKEEIVMLVGATPGWFDPWGQGTLVTVSS VL: not shown | 53 ratio | 6 ratio | 15100 MFI | 12600 MFI | 17600 MFI | 5 ratio
4 | MAb16676 (antibody, V domains shown, hIgG4 isotype control used) VH: QVQLVQSGAEVMKPGASVKVSCRASGYTFSSYDINWVRQAPGQGLEWMGWISTATGNTNYPQKVQGRVTMTTDTSTNTAYMELRSLRSDDTAVYYCTREGNSKGWLDPWGQGTLVTVSS VL: not shown | 74 ratio | 9 ratio | 686 MFI | 364 MFI | 18100 MFI | 8 ratio
5 | MAb16683 (antibody, V domains shown, hIgG4 isotype control used) VH: QVQLVESGGGLVKPGGSLRLSCAASGFTFSDYYMTWIRQTPGKGLDWVSYISSSGTNKYNADSVKGRFTISRDNAKNSLYLQMNSLRAEDTAVYYCVRDPPWGMDVWGQGTTVTVSS VL: not shown | 75 ratio | 9 ratio | 20900 MFI | 12000 MFI | 15200 MFI | 7 ratio
6 | MAb16614 (antibody, V domains shown, hIgG4 isotype control used) VH: QVQLVESGGGVVQPGGSLRLSCAASGFTFSTYDIHWVRQAPGKGLEWVAVISFDGSNRNYGDSVKGRFTISRDNSDNTLFLEMNNLRFEDTAVYYCAKEGYGVDFQHWGQGTLVTVSS VL: not shown | 94 ratio | 7 ratio | 56 MFI | 2900 MFI | 18700 MFI | 6 ratio

Source: US20240158497A1 (published 2024)
